Laboratory results from patent US20250161505A1 (RIPTIDE BIOSCIENCE, published 2025).

Legend:
DOTA-MART-1 = molecular target: T1, DOTA-MART-1 (conjugated with the chelator DOTA (no radiometal stated); attachment site not stated); test: SPR (Biacore T200), CD206 immobilized on CM5 chip, peptide as analyte
T1 construct: also called MART-1 peptide with DOTA

[68Ga]MART-1 = molecular target: T2, [68Ga]MART-1 (conjugated with the chelator DOTA complexed with 68Ga; attachment site not stated); test: protein plate binding assay on coated mouse CD206, gamma counting
T2 construct: Synthetic control peptide with DOTA, radiolabeled with 68Ga under the same conditions as RP832c; also called 68Ga-labeled DOTA-MART-1; control tracer

Row | Binder | binding result (DOTA-MART-1) | binding result ([68Ga]MART-1)
1 | Recombinant human CD206 (receptor, Bought protein, amine-coupled to a CM5 chip (about 5000 RU)) LLDTRQFLIYNEDHKRCVDAVSPSAVQTAACNQDAESQKFRWVSESQIMSVAFKLCLGVPSKTDWVAITLYACDSKSEFQKWECKNDTLLGIKGEDLFFNYGNRQEKNIMLYKGSGLWSRWKIYGTTDNLCSRGYEAMYTLLGNANGATCAFPFKFENKWYADCTSAGRSDGWLWCGTTTDYDTDKLFGYCPLKFEGSESLWNKDPLTSVSYQINSKSALTWHQARKSCQQQNAELLSITEIHEQTYLTGLTSSLTSGLWIGLNSLSFNSGWQWSDRSPFRYLNWLPGSPSAEPGKSCVSLNPGKNAKWENLECVQKLGYICKKGNTTLNSFVIPSESDVPTHCPSQWWPYAGHCYKIHRDEKKIQRDALTTCRKEGGDLTSIHTIEELDFIISQLGYEPNDELWIGLNDIKIQMYFEWSDGTPVTFTKWLRGEPSHENNRQEDCVVMKGKDGYWADRGCEWPLGYICKMKSRSQGPEIVEVEKGCRKGWKKHHFYCYMIGHTLSTFAEANQTCNNENAYLTTIEDRYEQAFLTSFVGLRPEKYFWTGLSDIQTKGTFQWTIEEEVRFTHWNSDMPGRKPGCVAMRTGIAGGLWDVLKCDEKAKFVCKHWAEGVTHPPKPTTTPEPKCPEDWGASSRTSLCFKLYAKGKHEKKTWFESRDFCRALGGDLASINNKEEQQTIWRLITASGSYHKLFWLGLTYGSPSEGFTWSDGSPVSYENWAYGEPNNYQNVEYCGELKGDPTMSWNDINCEHLNNWICQIQKGQTPKPEPTPAPQDNPPVTEDGWVIYKDYQYYFSKEKETMDNARAFCKRNFGDLVSIQSESEKKFLWKYVNRNDAQSAYFIGLLISLDKKFAWMDGSKVDYVSWATGEPNFANEDENCVTMYSNSGFWNDINCGYPNAFICQRHNSSINATTVMPTMPSVPSGCKEGWNFYSNKCFKIFGFMEEERKNWQEARKACIGFGGNLVSIQNEKEQAFLTYHMKDSTFSAWTGLNDVNSEHTFLWTDGRGVHYTNWGKGYPGGRRSSLSYEDADCVVIIGGASNEAGKWMDDTCDSKRGYICQTRSDPSLTNPPATIQTDGFVKYGKSSYSLMRQKFQWHEAETYCKLHNSLIASILDPYSNAFAWLQMETSNERVWIALNSNLTDNQYTWTDKWRVRYTNWAADEPKLKSACVYLDLDGYWKTAHCNESFYFLCKRSDEIPATEPPQLPGRCPESDHTAWIPFHGHCYYIESSYTRNWGQASLECLRMGSSLVSIESAAESSFLSYRVEPLKSKTNFWIGLFRNVEGTWLWINNSPVSFVNWNTGDPSGERNDCVALHASSGFWSNIHCSSYKGYICKRPKIIDAKPTHELLTTKADTRKMDPSK | no binding (tested: 0.5 uM-10 uM) | –
2 | CD206 mouse protein (receptor, Bought protein coated on a 96 well plate (1 ug per well); also called mouse CD206 protein; murine CD206) LDARQFLIYNEDHKRCVDALSAISVQTATCNPEAESQKFRWVSDSQIMSVAFKLCLGVPSKTDWASVTLYACDSKSEYQKWECKNDTLFGIKGTELYFNYGNRQEKNIKLYKGSGLWSRWKVYGTTDDLCSRGYEAMYSLLGNANGAVCAFPFKFENKWYADCTSAGRSDGWLWCGTTTDYDKDKLFGFCPLHFEGSERLWNKDPLTGILYQINSKSALTWHQARASCKQQNADLLSVTEIHEQMYLTGLTSSLSSGLWIGLNSLSVRSGWQWAGGSPFRYLNWLPGSPSSEPGKSCVSLNPGKNAKWENLECVQKLGYICKKGNNTLNPFIIPSASDVPTGCPNQWWPYAGHCYRIHREEKKIQKYALQACRKEGGDLASIHSIEEFDFIFSQLGYEPNDELWIGLNDIKIQMYFEWSDGTPVTFTKWLPGEPSHENNRQEDCVVMKGKDGYWADRACEQPLGYICKMVSQSHAVVPEGADKGCRKGWKRHGFYCYLIGSTLSTFTDANHTCTNEKAYLTTVEDRYEQAFLTSLVGLRPEKYFWTGLSDVQNKGTFRWTVDEQVQFTHWNADMPGRKAGCVAMKTGVAGGLWDVLSCEEKAKFVCKHWAEGVTRPPEPTTTPEPKCPENWGTTSKTSMCFKLYAKGKHEKKTWFESRDFCKAIGGELASIKSKDEQQVIWRLITSSGSYHELFWLGLTYGSPSEGFTWSDGSPVSYENWAYGEPNNYQNVEYCGELKGDPGMSWNDINCEHLNNWICQIQKGKTLLPEPTPAPQDNPPVTADGWVIYKDYQYYFSKEKETMDNARAFCKKNFGDLATIKSESEKKFLWKYINKNGGQSPYFIGMLISMDKKFIWMDGSKVDFVAWATGEPNFANDDENCVTMYTNSGFWNDINCGYPNNFICQRHNSSINATAMPTTPTTPGGCKEGWHLYKNKCFKIFGFANEEKKSWQDARQACKGLKGNLVSIENAQEQAFVTYHMRDSTFNAWTGLNDINAEHMFLWTAGQGVHYTNWGKGYPGGRRSSLSYEDADCVVVIGGNSREAGTWMDDTCDSKQGYICQTQTDPSLPVSPTTTPKDGFVTYGKSSYSLMKLKLPWHEAETYCKDHTSLLASILDPYSNAFAWMKMHPFNVPIWIALNSNLTNNEYTWTDRWRVRYTNWGADEPKLKSACVYMDVDGYWRTSYCNESFYFLCKKSDEIPATEPPQLPGKCPESEQTAWIPFYGHCYYFESSFTRSWGQASLECLRMGASLVSIETAAESSFLSYRVEPLKSKTNFWIGMFRNVEGKWLWLNDNPVSFVNWKTGDPSGERNDCVVLASSSGLWNNIHCSSYKGFICKMPKIIDPVTTHSSITTKADQRKMDPQPKGSSKA | – | no binding (tested: 50 nM)
